In paper PMC9482650, “Quantitative fragmentomics allow affinity mapping of interactomes” (Nature Communications, 2022):

B1: OTULIN, Q96BN8 (peptide)
chain: PVRVCEETSL
B2: ACVR2A, P27037 (peptide)
chain: VDFPPKESSL
B3: SLC2A1, P11166 (peptide)
chain: FHPLGADSQV
B4: HPV73-E6, Q82005 (peptide)
chain: SGSRPSATVV

These binders were tested against Inadl_9, Q8NI35 (assay: holdup assay). Conditions: plain residues with an end cap or a label only (N-terminal biotin on a linker: ttds).
Parameters: key: below the threshold = too weak to quantify, mostly under pKd 3.1 to 4

Inadl_9, Q8NI35, sequence (Q8NI35 1530-1615): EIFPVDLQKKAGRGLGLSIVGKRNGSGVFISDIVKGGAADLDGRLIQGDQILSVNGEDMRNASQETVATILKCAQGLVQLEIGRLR

Binder | pKd
B1 | below the threshold
B2 | below the threshold
B3 | below the threshold
B4 | 3.59

Each binder was assayed against DLG5_1, Q8TDM6 (assay: holdup assay). Conditions: plain residues with an end cap or a label only (N-terminal biotin on a linker: ttds).
Parameters: key: below the threshold = too weak to quantify, mostly under pKd 3.1 to 4

DLG5_1, Q8TDM6, sequence (Q8TDM6 617-713): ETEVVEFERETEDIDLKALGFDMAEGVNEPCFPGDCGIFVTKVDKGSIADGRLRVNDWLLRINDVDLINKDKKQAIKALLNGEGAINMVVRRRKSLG

Binder | pKd
B1 | 3.52
B2 | below the threshold
B3 | below the threshold
B4 | below the threshold

The binders below were run against LNX1_2, Q8TBB1 (assay: holdup assay). Conditions: plain residues with an end cap or a label only (N-terminal biotin on a linker: ttds).
Parameters: key: below the threshold = too weak to quantify, mostly under pKd 3.1 to 4

LNX1_2, Q8TBB1, sequence (Q8TBB1 371-470): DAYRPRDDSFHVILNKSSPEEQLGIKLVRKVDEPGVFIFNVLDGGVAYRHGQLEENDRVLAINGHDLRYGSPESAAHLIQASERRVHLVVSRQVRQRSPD

Binder | pKd
B1 | below the threshold
B2 | below the threshold
B3 | below the threshold
B4 | 4.06

What follows are binders tested against GRASP, Q7Z6J2 (assay: holdup assay). Conditions: plain residues with an end cap or a label only (N-terminal biotin on a linker: ttds).
Parameters: key: below the threshold = too weak to quantify, mostly under pKd 3.1 to 4

GRASP, Q7Z6J2, sequence (Q7Z6J2 96-193): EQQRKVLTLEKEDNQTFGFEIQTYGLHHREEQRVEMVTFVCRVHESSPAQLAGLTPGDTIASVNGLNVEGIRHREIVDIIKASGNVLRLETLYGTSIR

Binder | pKd
B1 | 4.71
B2 | 3.47
B3 | below the threshold
B4 | 3.8

The binders below were run against T1, TIAM2, Q8IVF5 (assay: holdup assay). Conditions: plain residues with an end cap or a label only (N-terminal biotin on a linker: ttds).
T1 sequence (Q8IVF5 885-986, limits assumed, looked up): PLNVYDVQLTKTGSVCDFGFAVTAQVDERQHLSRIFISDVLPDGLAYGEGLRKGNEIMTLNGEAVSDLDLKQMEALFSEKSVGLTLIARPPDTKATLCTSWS
Parameters: key: below the threshold = too weak to quantify, mostly under pKd 3.1 to 4

Binder | pKd
B1 | below the threshold
B2 | below the threshold
B3 | below the threshold
B4 | below the threshold

What follows are binders tested against GRID2IP_2, A4D2P6 (assay: holdup assay). Conditions: plain residues with an end cap or a label only (N-terminal biotin on a linker: ttds).
Parameters: key: below the threshold = too weak to quantify, mostly under pKd 3.1 to 4

GRID2IP_2, A4D2P6, sequence (A4D2P6 272-370): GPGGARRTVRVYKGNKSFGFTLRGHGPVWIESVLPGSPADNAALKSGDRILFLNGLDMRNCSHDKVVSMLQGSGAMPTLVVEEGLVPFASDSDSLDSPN

Binder | pKd
B1 | 4.75
B2 | 3.48
B3 | below the threshold
B4 | below the threshold

What follows are binders tested against T2, PDZRN3_1, Q9UPQ7 (assay: holdup assay). Conditions: plain residues with an end cap or a label only (N-terminal biotin on a linker: ttds).
T2 sequence (Q9UPQ7 244-349, limits assumed, looked up): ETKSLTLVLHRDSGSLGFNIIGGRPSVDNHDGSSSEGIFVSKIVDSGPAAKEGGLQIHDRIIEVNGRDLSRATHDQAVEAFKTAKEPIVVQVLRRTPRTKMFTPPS
Parameters: key: below the threshold = too weak to quantify, mostly under pKd 3.1 to 4

Binder | pKd
B1 | 4.99
B2 | 4.76
B3 | 3.53
B4 | below the threshold

These binders were tested against T3, APBA3_1, O96018 (assay: holdup assay). Conditions: plain residues with an end cap or a label only (N-terminal biotin on a linker: ttds).
T3 sequence (O96018 389-490, limits assumed, looked up): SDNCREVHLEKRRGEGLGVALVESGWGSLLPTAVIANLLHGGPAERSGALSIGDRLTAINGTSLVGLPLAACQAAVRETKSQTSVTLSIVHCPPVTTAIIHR
Parameters: key: below the threshold = too weak to quantify, mostly under pKd 3.1 to 4

Binder | pKd
B1 | 3.51
B2 | below the threshold
B3 | below the threshold
B4 | below the threshold

The binders below were run against GRIP2_4, Q9C0E4 (assay: holdup assay). Conditions: plain residues with an end cap or a label only (N-terminal biotin on a linker: ttds).
Parameters: key: below the threshold = too weak to quantify, mostly under pKd 3.1 to 4

GRIP2_4, Q9C0E4, sequence (Q9C0E4 446-548): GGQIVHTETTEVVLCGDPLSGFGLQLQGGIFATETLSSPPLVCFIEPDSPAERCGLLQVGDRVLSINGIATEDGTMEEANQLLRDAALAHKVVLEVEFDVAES

Binder | pKd
B1 | 3.53
B2 | below the threshold
B3 | below the threshold
B4 | 3.55

These binders were tested against T4, HTRA3, P83110 (assay: holdup assay). Conditions: plain residues with an end cap or a label only (N-terminal biotin on a linker: ttds).
T4 sequence (P83110 354-453, limits assumed, looked up): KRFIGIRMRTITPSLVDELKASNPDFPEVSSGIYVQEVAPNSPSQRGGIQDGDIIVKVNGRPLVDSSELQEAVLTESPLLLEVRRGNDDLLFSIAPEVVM
Parameters: key: below the threshold = too weak to quantify, mostly under pKd 3.1 to 4

Binder | pKd
B1 | below the threshold
B2 | below the threshold
B3 | below the threshold
B4 | 3.7

What follows are binders tested against FRMPD3, Q5JV73 (assay: holdup assay). Conditions: plain residues with an end cap or a label only (N-terminal biotin on a linker: ttds).
Parameters: key: below the threshold = too weak to quantify, mostly under pKd 3.1 to 4

FRMPD3, Q5JV73, sequence (Q5JV73 12-100): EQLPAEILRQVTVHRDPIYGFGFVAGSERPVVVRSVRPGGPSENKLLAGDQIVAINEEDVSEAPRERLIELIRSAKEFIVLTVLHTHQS

Binder | pKd
B1 | 3.81
B2 | below the threshold
B3 | below the threshold
B4 | below the threshold

The binders below were run against GRIP2_6, Q9C0E4 (assay: holdup assay). Conditions: plain residues with an end cap or a label only (N-terminal biotin on a linker: ttds).
Parameters: key: below the threshold = too weak to quantify, mostly under pKd 3.1 to 4

GRIP2_6, Q9C0E4, sequence (Q9C0E4 648-740): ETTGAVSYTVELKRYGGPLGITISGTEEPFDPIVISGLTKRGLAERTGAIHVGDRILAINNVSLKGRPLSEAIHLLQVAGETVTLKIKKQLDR

Binder | pKd
B1 | 3.53
B2 | below the threshold
B3 | below the threshold
B4 | below the threshold

What follows are binders tested against T5, MPP2, Q14168 (assay: holdup assay). Conditions: plain residues with an end cap or a label only (N-terminal biotin on a linker: ttds).
T5 sequence (Q14168 180-250, limits assumed, looked up): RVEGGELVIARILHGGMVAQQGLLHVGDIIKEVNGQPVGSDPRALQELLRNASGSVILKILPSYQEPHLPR
Parameters: key: below the threshold = too weak to quantify, mostly under pKd 3.1 to 4

Binder | pKd
B1 | below the threshold
B2 | below the threshold
B3 | below the threshold
B4 | below the threshold

Each binder was assayed against T6, RADIL, Q96JH8 (assay: holdup assay). Conditions: plain residues with an end cap or a label only (N-terminal biotin on a linker: ttds).
T6 sequence (Q96JH8 971-1071, limits assumed, looked up): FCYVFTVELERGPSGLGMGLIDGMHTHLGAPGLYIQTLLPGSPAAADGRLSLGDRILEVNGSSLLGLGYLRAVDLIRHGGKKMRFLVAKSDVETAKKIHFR
Parameters: key: below the threshold = too weak to quantify, mostly under pKd 3.1 to 4

Binder | pKd
B1 | below the threshold
B2 | below the threshold
B3 | below the threshold
B4 | 4.27

The binders below were run against IL16_4, Q14005 (assay: holdup assay). Conditions: plain residues with an end cap or a label only (N-terminal biotin on a linker: ttds).
Parameters: key: below the threshold = too weak to quantify, mostly under pKd 3.1 to 4

IL16_4, Q14005, sequence (Q14005 1229-1329): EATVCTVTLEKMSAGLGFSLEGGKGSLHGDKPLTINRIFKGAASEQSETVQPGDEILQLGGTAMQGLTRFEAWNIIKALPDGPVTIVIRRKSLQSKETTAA

Binder | pKd
B1 | 3.66
B2 | below the threshold
B3 | below the threshold
B4 | below the threshold

Each binder was assayed against PICK1, Q9NRD5 (assay: holdup assay). Conditions: plain residues with an end cap or a label only (N-terminal biotin on a linker: ttds).
Parameters: key: below the threshold = too weak to quantify, mostly under pKd 3.1 to 4

PICK1, Q9NRD5, sequence (Q9NRD5 17-115): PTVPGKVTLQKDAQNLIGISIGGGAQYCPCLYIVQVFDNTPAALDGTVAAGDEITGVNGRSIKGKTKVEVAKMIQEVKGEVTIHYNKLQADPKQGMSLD

Binder | pKd
B1 | below the threshold
B2 | below the threshold
B3 | below the threshold
B4 | 3.63

The binders below were run against IL16_3, Q14005 (assay: holdup assay). Conditions: plain residues with an end cap or a label only (N-terminal biotin on a linker: ttds).
Parameters: key: below the threshold = too weak to quantify, mostly under pKd 3.1 to 4

IL16_3, Q14005, sequence (Q14005 1107-1207): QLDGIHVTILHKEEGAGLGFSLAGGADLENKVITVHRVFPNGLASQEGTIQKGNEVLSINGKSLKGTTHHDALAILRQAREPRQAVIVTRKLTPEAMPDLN

Binder | pKd
B1 | below the threshold
B2 | below the threshold
B3 | below the threshold
B4 | below the threshold

Each binder was assayed against TJP1_3, Q07157 (assay: holdup assay). Conditions: plain residues with an end cap or a label only (N-terminal biotin on a linker: ttds).
Parameters: key: below the threshold = too weak to quantify, mostly under pKd 3.1 to 4

TJP1_3, Q07157, sequence (Q07157 416-512): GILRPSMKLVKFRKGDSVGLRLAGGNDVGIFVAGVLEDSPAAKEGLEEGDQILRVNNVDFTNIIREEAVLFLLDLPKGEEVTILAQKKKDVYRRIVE

Binder | pKd
B1 | below the threshold
B2 | below the threshold
B3 | below the threshold
B4 | below the threshold

What follows are binders tested against T7, DFNB31_3, Q9P202 (assay: holdup assay). Conditions: plain residues with an end cap or a label only (N-terminal biotin on a linker: ttds).
T7 sequence (Q9P202 811-907, limits assumed, looked up): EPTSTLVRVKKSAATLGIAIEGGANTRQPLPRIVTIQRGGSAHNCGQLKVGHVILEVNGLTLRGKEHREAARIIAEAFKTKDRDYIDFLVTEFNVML
Parameters: key: below the threshold = too weak to quantify, mostly under pKd 3.1 to 4

Binder | pKd
B1 | 3.49
B2 | below the threshold
B3 | below the threshold
B4 | below the threshold

These binders were tested against MAGI2_2, Q86UL8 (assay: holdup assay). Conditions: plain residues with an end cap or a label only (N-terminal biotin on a linker: ttds).
Parameters: key: below the threshold = too weak to quantify, mostly under pKd 3.1 to 4

MAGI2_2, Q86UL8, sequence (Q86UL8 410-522): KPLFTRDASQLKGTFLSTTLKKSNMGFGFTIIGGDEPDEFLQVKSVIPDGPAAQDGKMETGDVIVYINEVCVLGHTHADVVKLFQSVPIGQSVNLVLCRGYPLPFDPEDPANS

Binder | pKd
B1 | 4.09
B2 | 3.78
B3 | below the threshold
B4 | 4.19

The binders below were run against GORASP2, Q9H8Y8 (assay: holdup assay). Conditions: plain residues with an end cap or a label only (N-terminal biotin on a linker: ttds).
Parameters: key: below the threshold = too weak to quantify, mostly under pKd 3.1 to 4

Binder | pKd
B1 | below the threshold
B2 | 3.87
B3 | below the threshold
B4 | 4.13

The binders below were run against T8, DLG3_2, Q92796 (assay: holdup assay). Conditions: plain residues with an end cap or a label only (N-terminal biotin on a linker: ttds).
T8 sequence (Q92796 221-321, limits assumed, looked up): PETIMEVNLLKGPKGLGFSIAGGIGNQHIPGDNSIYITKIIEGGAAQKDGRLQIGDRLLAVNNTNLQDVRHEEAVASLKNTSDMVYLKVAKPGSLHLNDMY
Parameters: key: below the threshold = too weak to quantify, mostly under pKd 3.1 to 4

Binder | pKd
B1 | 4.35
B2 | below the threshold
B3 | 4.03
B4 | 4.11

The binders below were run against T9, MPDZ_12, O75970 (assay: holdup assay). Conditions: plain residues with an end cap or a label only (N-terminal biotin on a linker: ttds).
T9 sequence (O75970 1857-1958, limits assumed, looked up): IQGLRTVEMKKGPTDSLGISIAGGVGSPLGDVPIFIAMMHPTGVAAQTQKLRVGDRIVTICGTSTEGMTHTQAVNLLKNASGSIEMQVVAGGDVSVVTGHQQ
Parameters: key: below the threshold = too weak to quantify, mostly under pKd 3.1 to 4

Binder | pKd
B1 | below the threshold
B2 | below the threshold
B3 | below the threshold
B4 | below the threshold

The binders below were run against T10, DFNB31_1, Q9P202 (assay: holdup assay). Conditions: plain residues with an end cap or a label only (N-terminal biotin on a linker: ttds).
T10 sequence (Q9P202 135-233, limits assumed, looked up): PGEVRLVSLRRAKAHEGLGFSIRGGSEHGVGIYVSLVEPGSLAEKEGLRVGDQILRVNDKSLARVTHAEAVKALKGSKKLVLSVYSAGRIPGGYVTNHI
Parameters: key: below the threshold = too weak to quantify, mostly under pKd 3.1 to 4

Binder | pKd
B1 | 4.42
B2 | below the threshold
B3 | below the threshold
B4 | below the threshold

The binders below were run against NOS1, P29475 (assay: holdup assay). Conditions: plain residues with an end cap or a label only (N-terminal biotin on a linker: ttds).
Parameters: key: below the threshold = too weak to quantify, mostly under pKd 3.1 to 4

NOS1, P29475, sequence (P29475 9-101): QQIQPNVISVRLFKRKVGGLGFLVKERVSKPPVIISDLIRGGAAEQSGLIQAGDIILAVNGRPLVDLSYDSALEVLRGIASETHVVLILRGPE

Binder | pKd
B1 | 3.79
B2 | below the threshold
B3 | 3.49
B4 | 3.8

The binders below were run against T11, GRIP1_4, Q9Y3R0 (assay: holdup assay). Conditions: plain residues with an end cap or a label only (N-terminal biotin on a linker: ttds).
T11 sequence (Q9Y3R0 467-571, limits assumed, looked up): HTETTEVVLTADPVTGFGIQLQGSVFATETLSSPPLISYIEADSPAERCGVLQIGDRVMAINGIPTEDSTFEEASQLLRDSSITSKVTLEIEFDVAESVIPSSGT
Parameters: key: below the threshold = too weak to quantify, mostly under pKd 3.1 to 4

Binder | pKd
B1 | below the threshold
B2 | below the threshold
B3 | below the threshold
B4 | below the threshold
